Data set [1] concerns the molecule itself. The data set can be described thus: SDS-PAGE with and without 25 mM DTT, disulphide-linked homodimer (FIG. 12).
Data set [2] deals with the molecule itself. The data set can be described thus: gel filtration (S200 10/300GL), self-association.
In another data set the target is T1, HisIn (Streptococcus pneumoniae).
T1 construct: Recombinant, made in E. coli from pACYCDuet-HisIn; also called In peptide; In protein
T1 chain: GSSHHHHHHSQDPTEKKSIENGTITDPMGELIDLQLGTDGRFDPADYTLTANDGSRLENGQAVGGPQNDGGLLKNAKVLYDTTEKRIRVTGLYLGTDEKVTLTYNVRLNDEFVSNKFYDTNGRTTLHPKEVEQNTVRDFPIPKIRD
The data set can be described thus: electrospray mass spectrometry of the purified complex (measured 26772, calculated 26788.16).

The target of data set [3] is T2, In (derivative of In without His tag, co-expressed with HisJo) (Streptococcus pneumoniae).
T2 construct: Expressed from MCSII of pETDuet (pETDuet-In, pETDuet-HisJoIn); also called In peptide
T2 chain: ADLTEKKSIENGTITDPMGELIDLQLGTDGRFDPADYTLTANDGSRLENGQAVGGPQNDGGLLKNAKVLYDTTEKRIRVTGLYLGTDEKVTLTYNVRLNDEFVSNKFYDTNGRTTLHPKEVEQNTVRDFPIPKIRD
The data set can be described thus: electrospray mass spectrometry of the purified complex (measured 25589, calculated 25606.03; loss of 17 Da).

B1: Jo-B1CK-In (other)
chain: MGSSHHHHHHSQDPSDQYPQTGTYPDVQTPYQIIKVDGSEKNGQHKALNPNPYERVIPEGTLSKRIYQVNNLDDNQYGIELTVSGKTVYEQKDGIPEISQRTTIVIQKQTFISQHSCVNSTELDELIQQIVAAINAGIIPLGNTSNQISKLTEKKSIENGTITDPMGELIDLQLGTDGRFDPADYTLTANDGSRLENGQAVGGPQNDGGLLKNAKVLYDTTEKRIRVTGLYLGTDEKVTLTYNVRLNDEFVSNKFYDTNGRTTLHPKEVEQNTVRDFPIPKIRD
notes: Circularised within the chain by the Jo-In isopeptide bond; Forms a disulphide-linked dimer through the cysteine of the B1CK loop; also called fusion Jo-B1CK-In; recombinant protein Jo-B1CK-In
With B1, the binding result in data set [1] is reported as “binds”.

B2: FusJoIn (other)
chain: GSSHHHHHHSQDPSDQYPQTGTYPDVQTPYQIIKVDGSEKNGQHKALNPNPYERVIPEGTLSKRIYQVNNLDDNQYGIELTVSGKTVYEQKDGSTPGSVTEKKSIENGTITDPMGELIDLQLGTDGRFDPADYTLTANDGSRLENGQAVGGPQNDGGLLKNAKVLYDTTEKRIRVTGLYLGTDEKVTLTYNVRLNDEFVSNKFYDTNGRTTLHPKEVEQNTVRDFPIPKIRD
notes: Single chain with the isopeptide bond inside the chain; Used as the control for the dimerisation of Jo-B1CK-In; also called FusJoIn complex; Jo-In fused via a linker of 7 amino acids
B2: the binding result in data set [2] was “no binding”.

B3: HisJo (peptide)
chain: GSSHHHHHHSQDPSDQYPQTGTYPDVQTPYQIIKVDGSEKNGQHKALNPNPYERVIPEGTLSKRIYQVNNLDDNQYGIELTVSGKTVYEQKD
notes: Recombinant, made in E. coli from pETDuet-HisJo; The Jo peptide is RrgA 144-218; the derivative has two more residues at each end; also called Jo peptide; Jo protein
Regarding B3, the binding result (with HisIn; in data set [3]) was “binds” in each case.

(Values after patent publication US20140030286A1 (COMMISSARIAT A L ENERGIE ATOMIQUE ET AUX ENERGIES …, published 2014).)
